Measured values as given in the DeepSol protein solubility set.

Experiment: soluble on expression in E. coli; label from the status in PepcDB or PDB records

Row | Sequence | soluble on expression in E. coli
1 | MNYAEICIIKRDGKREDFSISKIKNAIGKAFHASGIDNEDKLIAEITMRVISNFVSPTISVEEIQDLVEKELMKVRPEVAKKYIIYREWRNTERDRKTQMKHIMDGIVAIDKNDVNLSNANMSSHTPAGQMMTFASEVTKDYTYKYLLPKKYAEAHQLGDIHIHDLDYYPTKTTTCIQYDLDDLFERGFRTKNGSIRTPQSIQSYATLATIIFQTNQNEQHGGQAIPAFDFFMAEGVRKTFRKHLKTLTEFYIEVEGKEPGTEALKKIEEKAYAMTRKDTHQAMEGFIHNLNTMHSRGGNQVVFSSINYGTDTSPEGRMVIEELLKATIEGLGTRGEVPVFPIQIFKVKDGVSYSEEDYKKAMENFEAALEGKMEFQAPNFDLFLKACRTTAKALFPNFMFLDTPYNKNEKWDIKDPKRYRYELATMGCRTRVYENIAGEKSSLGRGNLSFTTMNMPRLAIEARIKAESLEESGKKEAIERKAKEIFIESVHALSELIAEQLYARYQYQRTALARQFPFMMGNDVWKGGGKLSPNDQVGDVLRQGTLGIGFIGGHNAMMALYGEGHAHSQKAWDTLFEAVTEMNKVADEYKQKYQLNFSVLATPAEGLSGRFTRMDRRKYGIIPGVTDNDYYVNSFHVDVKEPITITEKIKREAPFHAITRGGHITYVELDGEAQKNVKAIAKIVKVMHDEGIGYGSINHPVDTCQACGYKGVIYDKCPVCQSENIMRMRRITGYLTGDLSTWNSAKRAEERDRVKHG | not soluble
2 | MNYEIKQEEKRTVAGFHLVGPWEQTVKKGFEQLMMWVDSKNIVPKEWVAVYYDNPDETPAEKLRCDTVVTVPGYFTLPENSEGVILTEITGGQYAVAVARVVGDDFAKPWYQFFNSLLQDSAYEMLPKPCFEVYLNNGAEDGYWDIEMYVAVQPKHH | soluble
3 | MNYFGKLQIRFSKSFLLLLIVSSLTACVDLTGARNTYIKKEKQPAISDVPNKKSKAQNMSSKKGEVHTMLGGLGIFSKGMYTLRDKVSEKYHITAHSTMWYNAGAVSRYIIDHYYQEKDHKPIILVGHSLGANEQIKVARNLNAAGVPVALLVTVDAVSQTIVPPNVKQALNVYKPGFVPMFSGLKLRAVDPQLTKIDNINVDSIKGIKVNHFTIDKDEILQAMIMDKVDKVLVDGNKKGA | not soluble
4 | MNYHTATITCQTTRPIDIIDITADVRSALEESGLQQGTVTLLSRHTTACLNINEREERLMQDMTTWLKRFIPKDGDWLHNIETIDGRDNAHSHLLGLFMNSSETIPFSEGQLMLGKWQSIFFIELDGPRPKREVLVHIQGELEHHHHHH | soluble
5 | MNYHWSDHPDPNKWADCVHCGMCLEACPTYELTGHEQQSPRGRVHLIKSVAEGKLEVNEAFADPVFTCLDCRACETACPADVEVGGLIEEARGQIRQALPLSGWKLEHHHHHH | not soluble
6 | MNYSHPISLKTLVQEDDIGVNAPIIHQSVIARLTAGLYPLYQSKKIPFEPLPETMLTEGYSSPVPDVLLYDHQTEEAKVIIEVCQNSGLKHDTSKIVKLIEDNAYGILEGFVFNYKTQQWLRYRLGDGGVATNSSFSEVLQVDLNTFV | soluble
7 | MNYTLKNDHLNVVVDTFGAEMHSIQHDDIEYLWQADAKFWGRHAPVLFPIVGKLKNGEYRYNDKTYKMGGHGFARDNDFELIKKSADELVFELRDNEDSLNHYPFHFVFRVSYKLVDNKIRVRYEVKNEDEKFMSFGVGAHPAFNVPLKNGTFEDYQLTISPDEKRTFIPLDPPSGTLKLDERVESQVSQLPLTRALFDKDALVYTSSKEMKVSLTNKLDDHGVSLTWKNMPYFGLEHHHHHH | not soluble
8 | MPAHPAKTDLASSAGARGGALAMESAEHSASPAIATTARLLAAMKDQPGALLPVLHAVQDELGFIPPEAVQTIAETLSLSRAEVHGVITFYPHFRSEPAGRHVLEICRAESCQAMGGDALAAHARQRLGCEFHATAADGSCTLEPVYCLGLCAQSPAVMIDGQPHARVTPAKLDRLLARAIEATP | not soluble
9 | MPAIFTHEGKVEGVPGNYPLTAENLFRIGLALCTLWILDKEIEEPTLSIPETNFVTLALSVGFMNAGGSVNVGKGGDIKLFLQKGEIYVLEFQPLSETDIKKLESILFGRAPIPKKTGEDIGSFKC | soluble
10 | MPAQPNPEQRDWLEALNAGDATMGESRLFERDGTWYLHVTATRDVEERSDVSAEERTPIGVDIGEASLATVCHRDGHGSPTAPELWADEGKTVRRLRKTYFTATRRLQTRGSERIVESFGDDIWDQIDDVFHRVTREVVEYAESVENPVLVLEDLTYIRESMDYGEYMNRRLHGWGFAKLHAQIRYKAVEKGIPVETVNPCNTSKECHACGEVGYRPRQATFKCTNDACWMGESQADVNGAINIADRYLSGESHSREHTDGDDSAGDGGRLTAPQDTLADATTQETLGTYAS | soluble
11 | MPAYPREGKIIQIHSYKHNGTIHRIWQETVVLKGTPSYVIGGNNKTLVMEADGRTWVTREPAICFFHAKHWFNIIAMIREDGVYYYCNLSSPFVWDEEALKYIDYDLDIKVFPDMTYMLLDEDEYERHRREMHYPDVIDRILKNNVQKLIGWIKERKGPFAPEFIDKWYGVFQAYQT | not soluble
12 | MPDIVNRKVEHVEIAAFENVDGLSSSTFLNDVILVHQGFPGISFSEINTKTKFFRKEISVPVMVTGMTGGRNELGRINKIIAEVAEKFGIPMGVGSQRVAIEKAEARESFAIVRKVAPTIPIIANLGMPQLVKGYGLKEFQDAIQMIEADAIAVHLNPAQEVFQPEGEPEYQIYALEKLRDISKELSVPIIVKESGNGISMETAKLLYSYGIKNFDTSGQGGTNWIAIEMIRDIRRGNWKAESAKNFLDWGVPTAASIMEVRYSVPDSFLVGSGGIRSGLDAAKAIALGADIAGMALPVLKSAIEGKESLEQFFRKIIFELKAAMMLTGSKDVDALKKTSIVILGKLKEWAEYRGINLSIYEKVRKRE | soluble
13 | MPDPLTVSGSFSPEDVKHIGLKSIISGQIIKKYSQNQNLRSIKNVKLIIPSKAVSVDRNERTLFIPCLKLLLNYRFSNNFNKVSQIEIDNVYAYVAVVFPDEEPESFGYYIGVDRNTMGHIAVVADPDSGKVWKLGKMRYHIHQKYQNIMNRLSNSGKNKQLKAVKKREKNIVKDLNHKISRKIVDLALYNGSGIKLENLKGIRKLNSKSNGAGKGKPDQNKDKKLTCSNEYSLNNWSFLQLQQFIEYKARLRGVEVVYIDPYATSKKCSRCGHTGNRQSKRFECPCCGHVDHADVNAAFNIALTPKDTGQFSAERDAGKGRTDTPQKVLARNAFSKRAAREKASPQFAWEVCQFLTLEHHHHHH | not soluble
14 | MPDSPAEVKTQPRSTPPSMPPPPPTSSQGATRPPSFTPHTLMNGSSHSPTAIHGAPSTPNGFSNGPATSSTASLSTQHLPPACGARQLSKLKRFLTTLQQFGSDISPEIGERVRTLVLGLVNSTLTIEEFHAKLQEATNFPLRPFVIPFLKANLPLLQRELLHCARLAKQTPAQYLAQHEQLLLDASATSPVDSSELLLEVNENGKRRTPDRTKENGSDRDPLHPDHLSKRSCTLSPAQRCSPSNGLPHPTPPPPPHYRLEDMAMAHHFRDSYRHPDPRELRERHRPLAIPGLDKKK | soluble
15 | MPEALRTQIDELNSWIYDKVNNGVYKAGFATTQSAYDESASTVFAALSDLETILAKQRYLTGEQLTEADLRLWTTLIRFDPVYHTHFKCDKYRLSDYPNLFGFLRDIYQMPGIAETVDMAHIRHHYYRSHGTINPHGVISLGPEQDLNQPHQRDKKFVDLYLEHHHHHH | soluble
16 | MPEMADVMQTQAGDAGAFRHFDLSRVPTPCFVVDEVAIERNLKILRDISDRSGAHVLSALKAFSMFTLAPLVRQYLGGTCASGIYEARLGREEYGGEVATFCAGYKEQDIDEILSLSNHIIFNSPAQKDRFLSRAQAAGVQVGLRINPEHSEGEIAKYDPCAPCSRLGTPVSLLTPETLKGVDGLHMHTLCEQGFEPLLRTWAAVEPKLAPYLPGLKWLNFGGGHHITRADYDRDALIDFLKSLRARHGLDVYLEPGEAVALDAGILVGEILDLPSNGMDLAITDISATCHMPDVIEAPYRPALMDEADSGHTYRLGGPSCLAGDVIGDYTWDQPLTIGQRFAFLDQAHYSMVKTNTFNGVPLPTIALWNSKTDALRIVRQFDYSDFKDRLS | not soluble
17 | MPEQAQTRRVFLFLQGPHGPFFHALGRMLRAAGAEVWRVGFNAGDRAFWFHPPSFIPYKGAHEDWPQAFADLLERKGVTDIVLYGDTRPIHASAVAAAKARGLGVHVFEEGYLRPYWVTYEREGSNGNSRLMDMTLEEMRAALALSDLETPLPPSHWGDMRQHIFYGALYHWFVMFTNQGYRRFKPHRDLPVTKEFQLYLQRLLLMPALAVERMLATARIRNGGFPYHLALLQLEHDSSFQQHSPFSTMTDFLEEIFDGFARGAPQHHHLVVKAHPLENGRVPLRREVRRLARQHGLEGRVHYVRGGKLAQLLNDARSAVTVNSTAGQQVLWRGIPLKVFGRAVYDKPEFVSTQTASEFFAAANRPDARAYKEYRRYLLETSQLPGGFYSRKGRRQLLRQVVDMMLSPDDPYDALKSGKAAPRQQLRLVN | not soluble
18 | MPFAIGQRWLSESENALGLGVITALDQRTVTIYFPAADETRIYAMAQAPLSRIVFSKGETLSHQAGWQGEILDVQNMNGLLFYLVKNPQDEDVIVQERDISPIISFSQAKDRLFSAQIDRSTHFALRY | not soluble
19 | MPGKLTATILTRNEAANIGDCIDSLAQLADEVIVLDSGSTDATRDIARARGANVIEDDGPWPGFGPQKNRALDRATGEWVLSIDADERVPPELAQEIRTAMARADADAYAIPRLSQFCGAWVHHSGWRPDHVIRLFRRGKARFSENLVHESLQVTGNVARLRTSLLHYSYTSMDQVHRKSAQYAEAGARDLTQRGKHIGALSPVLHGTWAFVRTLVLRRGFLDGGTGLAIARMNATVSYRKYRRARELASGANHRPLEHHHHHH | not soluble
20 | MPGTPIPMGRQTHRAHSASGFYTPHVSKLKTNYDREFQKFLRSAKTAIDHLDKIEMQILCPLKKKIKRFHKESNTLDVYFRSQTYWRSFYKELMNRSDDVMDCFRFEDLRDVAAVVESHRLPDVLVSFVTQQLMEWRELFKDVEWMRKFRELSHNMDSLKTKRIEHVLRQDIIREIGVAIDVHNLKIDDFRSHSNNTERVAEGIAHAIEESKNKQDAGNQLKHVPVLSKQMSVRRWYREHYGDPQALSDESDEESLSDGDNSSLFVGTADSSSRDASDISTEEVVTENEFDEFFN | not soluble
21 | MPHILNVTVPIPETHVLITKDEYDELIGYSLDPVWNMSDLKKKLKIASDETIKDRLLFHPRFEKELRAQGIVHYPDENFNRWRFNARKMNKFVDEHFNEIYKERIKLEHHHHHH | not soluble
22 | MPHPTHCRSANAVFRARMEFGLLEAPVSFSTLMDKRERGSFDSQFLIAMPGLDDGNFARSVIYICAHSDAGAMGFIINRPQQITFTDILLHLKLVDSNDAIMLPNRTREFPIQCGGPVESGRGFVLHSDDYLSESSIPVSDDISLTATLDIVRAISNGRGPQKATMMLGYAGWGPGQLENEIANNGWLNCPAAEELIFDRGLDNKYERALALMGVDARMLSTDAGHALEHHHHHH | soluble
23 | MPHSYPALSAEQKKELSDIALRIVAPGKGILAADESVGSMAKRLSQIGVENTEENRRLYRQVLFSADDRVKKCIGGVIFFHETLYQKDDNGVPFVRTIQDKGIVVGIKVDKGVVPLAGTDGETTTQGLDGLSERCAQYKKDGADFAKWRCVLKISERTPSALAILENANVLARYASICQQNGIVPIVEPEILPDGDHDLKRCQYVTEKVLAAVYKALSDHHVYLEGTLLKPNMVTPGHACPIKYTPEEIAMATVTALRRTVPPAVPGVTFLSGGQSEEEASFNLNAINRCPLPRPWALTFSYGRALQASALNAWRGQRDNAGAATEEFIKRAEVNGLAAQGKYEGSGEDGGAAAQSLYIANHAYL | soluble
